This passage reports koff results from publication PMC11865535 (Nature Communications, 2025).

The target of the test is CUL1^FlAsH preassembled with SKP1·SKP2 (UniProt Q13616;P62877;P63208;Q13309, FlAsH fluorophore on the C-terminal tetracysteine tag). Put plainly: FRET or BRET. On the technique in general: In BRET a luciferase serves as donor, and the signal depends on an acceptor being close.
Sequence of CUL1^FlAsH preassembled with SKP1·SKP2 (Q13616 whole entry, chain 1 of 3): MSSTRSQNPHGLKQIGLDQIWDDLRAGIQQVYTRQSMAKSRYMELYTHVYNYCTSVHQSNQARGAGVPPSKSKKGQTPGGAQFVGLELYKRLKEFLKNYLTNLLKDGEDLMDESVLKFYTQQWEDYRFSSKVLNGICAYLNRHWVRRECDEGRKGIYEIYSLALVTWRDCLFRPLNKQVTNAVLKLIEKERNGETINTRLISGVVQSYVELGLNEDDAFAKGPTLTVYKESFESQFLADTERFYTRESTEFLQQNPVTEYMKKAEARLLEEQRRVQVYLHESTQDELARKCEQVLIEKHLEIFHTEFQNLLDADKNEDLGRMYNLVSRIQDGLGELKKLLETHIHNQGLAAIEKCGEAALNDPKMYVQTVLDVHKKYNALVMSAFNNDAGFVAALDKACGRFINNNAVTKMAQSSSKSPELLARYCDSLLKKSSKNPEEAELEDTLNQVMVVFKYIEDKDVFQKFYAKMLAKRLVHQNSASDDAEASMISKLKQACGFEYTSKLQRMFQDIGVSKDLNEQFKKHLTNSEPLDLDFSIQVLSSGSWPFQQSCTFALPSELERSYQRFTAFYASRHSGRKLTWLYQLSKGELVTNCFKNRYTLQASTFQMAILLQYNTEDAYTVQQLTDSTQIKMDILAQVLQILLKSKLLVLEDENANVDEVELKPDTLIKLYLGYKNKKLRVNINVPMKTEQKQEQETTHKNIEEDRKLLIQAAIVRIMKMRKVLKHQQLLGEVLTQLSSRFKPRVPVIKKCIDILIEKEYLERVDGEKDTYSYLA
Sequence of CUL1^FlAsH preassembled with SKP1·SKP2 (P63208 whole entry, chain 3 of 3): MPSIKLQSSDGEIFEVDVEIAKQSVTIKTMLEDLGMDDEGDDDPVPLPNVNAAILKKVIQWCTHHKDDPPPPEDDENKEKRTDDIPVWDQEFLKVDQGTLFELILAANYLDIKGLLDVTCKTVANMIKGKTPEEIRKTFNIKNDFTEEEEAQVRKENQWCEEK
Sequence of CUL1^FlAsH preassembled with SKP1·SKP2 (Q13309 whole entry, chain 4 of 3): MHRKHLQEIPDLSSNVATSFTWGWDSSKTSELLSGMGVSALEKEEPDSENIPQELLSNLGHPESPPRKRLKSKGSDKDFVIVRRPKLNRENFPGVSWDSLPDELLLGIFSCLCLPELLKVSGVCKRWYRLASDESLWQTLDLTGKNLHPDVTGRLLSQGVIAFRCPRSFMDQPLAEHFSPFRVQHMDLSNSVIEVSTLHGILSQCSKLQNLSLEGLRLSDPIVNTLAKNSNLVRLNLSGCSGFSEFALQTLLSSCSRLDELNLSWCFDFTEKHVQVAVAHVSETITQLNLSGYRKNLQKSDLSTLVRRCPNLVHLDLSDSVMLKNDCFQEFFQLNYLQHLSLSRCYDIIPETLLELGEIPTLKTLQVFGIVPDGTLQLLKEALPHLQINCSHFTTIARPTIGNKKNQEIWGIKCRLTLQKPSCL

B1: ^CFPCAND2 (natural protein)
chain: MSTAAFHISSLLEKMTSSDKDFRFMATSDLMSELQKDSIQLDEDSERKVVKMLLRLLEDKNGEVQNLAVKCLGPLVVKVKEYQVETIVDTLCTNMRSDKEQLRDIAGIGLKTVLSELPPAATGSGLATNVCRKITGQLTSAIAQQEDVAVQLEALDILSDMLSRLGVPLGAFHASLLHCLLPQLSSPRLAVRKRAVGALGHLAAACSTDLFVELADHLLDRLPGPRVPTSPTAIRTLIQCLGSVGRQAGHRLGAHLDRLVPLVEDFCNLDDDELRESCLQAFEAFLRKCPKEMGPHVPNVTSLCLQYIKHDPNYNYDSDEDEEQMETEDSEFSEQESEDEYSDDDDMSWKVRRAAAKCIAALISSRPDLLPDFHCTLAPVLIRRFKEREENVKADVFTAYIVLLRQTQPPKGWLEAMEEPTQTGSNLHMLRGQVPLVVKALQRQLKDRSVRARQGCFSLLTELAGVLPGSLAEHMPVLVSGIIFSLADRSSSSTIRMDALAFLQGLLGTEPAEAFHPHLPILLPPVMACVADSFYKIAAEALVVLQELVRALWPLHRPRMLDPEPYVGEMSAVTLARLRATDLDQEVKERAISCMGHLVGHLGDRLGDDLEPTLLLLLDRLRNEITRLPAIKALTLVAVSPLQLDLQPILAEALHILASFLRKNQRALRLATLAALDALAQSQGLSLPPSAVQAVLAELPALVNESDMHVAQLAVDFLATVTQAQPASLVEVSGPVLSELLRLLRSPLLPAGVLAAAEGFLQALVGTRPPCVDYAKLISLLTAPVYEQAVDGGPGLHKQVFHSLARCVAALSAACPQEAASTASRLVCDARSPHSSTGVKVLAFLSLAEVGQVAGPGHQRELKAVLLEALGSPSEDVRAAASYALGRVGAGSLPDFLPFLLEQIEAEPRRQYLLLHSLREALGAAQPDSLKPYAEDIWALLFQRCEGAEEGTRGVVAECIGKLVLVNPSFLLPRLRKQLAAGRPHTRSTVITAVKFLISDQPHPIDPLLKSFIGEFMESLQDPDLNVRRATLAFFNSAVHNKPSLVRDLLDDILPLLYQETKIRRDLIREVEMGPFKHTVDDGLDVRKAAFECMYSLLESCLGQLDICEFLNHVEDGLKDHYDIRMLTFIMVARLATLCPAPVLQRVDRLIEPLRATCTAKVKAGSVKQEFEKQDELKRSAMRAVAALLTIPEVGKSPIMADFSSQIRSNPELAALFESIQKDSASAPSTDSMELS
In turn, B1 showed a koff of 4.4 s⁻¹.

B2: ^CFPCAND1 (natural protein)
chain: MASASYHISNLLEKMTSSDKDFRFMATNDLMTELQKDSIKLDDDSERKVVKMILKLLEDKNGEVQNLAVKCLGPLVSKVKEYQVETIVDTLCTNMLSDKEQLRDISSIGLKTVIGELPPASSGSALAANVCKKITGRLTSAIAKQEDVSVQLEALDIMADMLSRQGGLLVNFHPSILTCLLPQLTSPRLAVRKRTIIALGHLVMSCGNIVFVDLIEHLLSELSKNDSMSTTRTYIQCIAAISRQAGHRIGEYLEKIIPLVVKFCNVDDDELREYCIQAFESFVRRCPKEVYPHVSTIINICLKYLTYDPNYNYDDEDEDENAMDADGGDDDDQGSDDEYSDDDDMSWKVRRAAAKCLDAVVSTRHEMLPEFYKTVSPALISRFKEREENVKADVFHAYLSLLKQTRPVQSWLCDPDAMEQGETPLTMLQSQVPNIVKALHKQMKEKSVKTRQCCFNMLTELVNVLPGALTQHIPVLVPGIIFSLNDKSSSSNLKIDALSCLYVILCNHSPQVFHPHVQALVPPVVACVGDPFYKITSEALLVTQQLVKVIRPLDQPSSFDATPYIKDLFTCTIKRLKAADIDQEVKERAISCMGQIICNLGDNLGSDLPNTLQIFLERLKNEITRLTTVKALTLIAGSPLKIDLRPVLGEGVPILASFLRKNQRALKLGTLSALDILIKNYSDSLTAAMIDAVLDELPPLISESDMHVSQMAISFLTTLAKVYPSSLSKISGSILNELIGLVRSPLLQGGALSAMLDFFQALVVTGTNNLGYMDLLRMLTGPVYSQSTALTHKQSYYSIAKCVAALTRACPKEGPAVVGQFIQDVKNSRSTDSIRLLALLSLGEVGHHIDLSGQLELKSVILEAFSSPSEEVKSAASYALGSISVGNLPEYLPFVLQEITSQPKRQYLLLHSLKEIISSASVVGLKPYVENIWALLLKHCECAEEGTRNVVAECLGKLTLIDPETLLPRLKGYLISGSSYARSSVVTAVKFTISDHPQPIDPLLKNCIGDFLKTLEDPDLNVRRVALVTFNSAAHNKPSLIRDLLDTVLPHLYNETKVRKELIREVEMGPFKHTVDDGLDIRKAAFECMYTLLDSCLDRLDIFEFLNHVEDGLKDHYDIKMLTFLMLVRLSTLCPSAVLQRLDRLVEPLRATCTTKVKANSVKQEFEKQDELKRSAMRAVAALLTIPEAEKSPLMSEFQSQISSNPELAAIFESIQKDSSSTNLESMDTS
Regarding B2, the dissociation rate constant (koff) came out at 2.5 s⁻¹.

The term koff denotes the rate constant with which the complex falls apart. Read a low koff as slow dissociation.
